Assay results taken from PMC11554844, “BEACH domain proteins function as cargo-sorting adaptors in secretory and endocytic pathways” (The Journal of Cell Biology, 2024).

B1: 3xFlag-EGFP-ALFY [human] / GST-CTLA4 (201–215) [human] (parent complex)
chain 1: MNMVKRIMGRPRQEECSPQDNALGLMHLRRLFTELCHPPRHMTQKEQEEKLYMMLPVFNRVFGNAPPNTMTEKFSDLLQFTTQVSRLMVTEIRRRASNKSTEAASRAIVQFLEINQSEEASRGWMLLTTINLLASSGQKTVDCMTTMSVPSTLVKCLYLFFDLPHVPEAVGGAQNELPLAERRGLLQKVFVQILVKLCSFVSPAEELAQKDDLQLLFSAITSWCPPYNLPWRKSAGEVLMTISRHGLSVNVVKYIHEKECLSTCVQNMQQSDDLSPLEIVEMFAGLSCFLKDSSDVSQTLLDDFRIWQGYNFLCDLLLRLEQAKEAESKDALKDLVNLITSLTTYGVSELKPAGITTGAPFLLPGFAVPQPAGKGHSVRNVQAFAVLQNAFLKAKTSFLAQIILDAITNIYMADNANYFILESQHTLSQFAEKISKLPEVQNKYFEMLEFVVFSLNYIPCKELISVSILLKSSSSYHCSIIAMKTLLKFTRHDYIFKDVFREVGLLEVMVNLLHKYAALLKDPTQALNEQGDSRNNSSVEDQKHLALLVMETLTVLLQGSNTNAGIFREFGGARCAHNIVKYPQCRQHALMTIQQLVLSPNGDDDMGTLLGLMHSAPPTELQLKTDILRALLSVLRESHRSRTVFRKVGGFVYITSLLVAMERSLSCPPKNGWEKVNQNQVFELLHTVFCTLTAAMRYEPANSHFFKTEIQYEKLADAVRFLGCFSDLRKISAMNVFPSNTQPFQRLLEEDVISIESVSPTLRHCSKLFIYLYKVATDSFDSRAEQIPPCLTSESSLPSPWGTPALSRKRHAYHSVSTPPVYPPKNVADLKLHVTTSSLQSSDAVIIHPGAMLAMLDLLASVGSVTQPEHALDLQLAVANILQSLVHTERNQQVMCEAGLHARLLQRCSAALADEDHSLHPPLQRMFERLASQALEPMVLREFLRLASPLNCGAWDKKLLKQYRVHKPSSLSYEPEMRSSMITSLEGLGTDNVFSLHEDNHYRISKSLVKSAEGSTVPLTRVKCLVSMTTPHDIRLHGSSVTPAFVEFDTSLEGFGCLFLPSLAPHNAPTNNTVTTGLIDGAVVSGIGSGERFFPPPSGLSYSSWFCIEHFSSPPNNHPVRLLTVVRRANSSEQHYVCLAIVLSAKDRSLIVSTKEELLQNYVDDFSEESSFYEILPCCARFRCGELIIEGQWHHLVLVMSKGMLKNSTAALYIDGQLVNTVKLHYVHSTPGGSGSANPPVVSTVYAYIGTPPAQRQIASLVWRLGPTHFLEEVLPSSNVTTIYELGPNYVGSFQAVCMPCKDAKSEGVVPSPVSLVPEEKVSFGLYALSVSSLTVARIRKVYNKLDSKAIAKQLGISSHENATPVKLIHNSAGHLNGSARTIGAALIGYLGVRTFVPKPVATTLQYVGGAAAILGLVAMASDVEGLYAAVKALVCVVKSNPLASKEMERIKGYQLLAMLLKKKRSLLNSHILHLTFSLVGTVDSGHETSIIPNSTAFQDLLCDFEVWLHAPYELHLSLFEHFIELLTESSEASKNAKLMREFQLIPKLLLTLRDMSLSQPTIAAISNVLSFLLQGFPSSNDLLRFGQFISSTLPTFAVCEKFVVMEINNEEKLDTGTEEEFGGLVSANLILLRNRLLDILLKLIYTSKEKTSINLQACEELVKTLGFDWIMMFMEEHLHSTTVTAAMRILVVLLSNQSILIKFKEGLSGGGWLEQTDSVLTNKIGTVLGFNVGRSAGGRSTVREINRDACHFPGFPVLQSFLPKHTNVPALYFLLMALFLQQPVSELPENLQVSVPVISCRSKQGCQFDLDSIWTFIFGVPASSGTVVSSIHNVCTEAVFLLLGMLRSMLTSPWQSEEEGSWLREYPVTLMQFFRYLYHNVPDLASMWMSPDFLCALAATVFPFNIRPYSEMVTDLDDEVGSPAEEFKAFAADTGMNRSQSEYCNVGTKTYLTNHPAKKFVFDFMRVLIIDNLCLTPASKQTPLIDLLLEASPERSTRTQQKEFQTYILDSVMDHLLAADVLLGEDASLPITSGGSYQVLVNNVFYFTQRVVDKLWQGMFNKESKLLIDFIIQLIAQSKRRSQGLSLDAVYHCLNRTILYQFSRAHKTVPQQVALLDSLRVLTVNRNLILGPGNHDQEFISCLAHCLINLHVGSNVDGFGLEAEARMTTWHIMIPSDIEPDGSYSQDISEGRQLLIKAVNRVWTELIHSKKQVLEELFKVTLPVNERGHVDIATARPLIEEAALKCWQNHLAHEKKCISRGEALAPTTQSKLSRVSSGFGLSKLTGSRRNRKESGLNKHSLSTQEISQWMFTHIAVVRDLVDTQYKEYQERQQNALKYVTEEWCQIECELLRERGLWGPPIGSHLDKWMLEMTEGPCRMRKKMVRNDMFYNHYPYVPETEQETNVASEIPSKQPETPDDIPQKKPARYRRAVSYDSKEYYMRLASGNPAIVQDAIVESSEGEAAQQEPEHGEDTIAKVKGLVKPPLKRSRSAPDGGDEENQEQLQDQIAEGSSIEEEEKTDNATLLRLLEEGEKIQHMYRCARVQGLDTSEGLLLFGKEHFYVIDGFTMTATREIRDIETLPPNMHEPIIPRGARQGPSQLKRTCSIFAYEDIKEVHKRRYLLQPIAVEVFSGDGRNYLLAFQKGIRNKVYQRFLAVVPSLTDSSESVSGQRPNTSVEQGSGLLSTLVGEKSVTQRWERGEISNFQYLMHLNTLAGRSYNDLMQYPVFPWILADYDSEEVDLTNPKTFRNLAKPMGAQTDERLAQYKKRYKDWEDPNGETPAYHYGTHYSSAMIVASYLVRMEPFTQIFLRLQGGHFDLADRMFHSVREAWYSASKHNMADVKELIPEFFYLPEFLFNSNNFDLGCKQNGTKLGDVILPPWAKGDPREFIRVHREALECDYVSAHLHEWIDLIFGYKQQGPAAVEAVNVFHHLFYEGQVDIYNINDPLKETATIGFINNFGQIPKQLFKKPHPPKRVRSRLNGDNAGISVLPGSTSDKIFFHHLDNLRPSLTPVKELKEPVGQIVCTDKGILAVEQNKVLIPPTWNKTFAWGYADLSCRLGTYESDKAMTVYECLSEWGQILCAICPNPKLVITGGTSTVVCVWEMGTSKEKAKTVTLKQALLGHTDTVTCATASLAYHIIVSGSRDRTCIIWDLNKLSFLTQLRGHRAPVSALCINELTGDIVSCAGTYIHVWSINGNPIVSVNTFTGRSQQIICCCMSEMNEWDTQNVIVTGHSDGVVRFWRMEFLQVPETPAPEPAEVLEMQEDCPEAQIGQEAQDEDSSDSEADEQSISQDPKDTPSQPSSTSHRPRAASCRATAAWCTDSGSDDSRRWSDQLSLDEKDGFIFVNYSEGQTRAHLQGPLSHPHPNPIEVRNYSRLKPGYRWERQLVFRSKLTMHTAFDRKDNAHPAEVTALGISKDHSRILVGDSRGRVFSWSVSDQPGRSAADHWVKDEGGDSCSGCSVRFSLTERRHHCRNCGQLFCQKCSRFQSEIKRLKISSPVRVCQNCYYNLQHERGSEDGPRNC
chain 2: YVKMPPTEPECEKQF

Variants of: B1
Experiment: GST pulldown, anti-flag western blot quantification; HeLa 3xFlag-EGFP-ALFY cell lysate; three independent experiments; read off a plot

Row | response | Variant
1 | ~0.5 | chain 2 YVKMPPTEPECEAQF
2 | ~1.4 | chain 2 YVKMPPTAPECEKQF
3 | ~1.2 | chain 2 YVKMPPTEPECAKQF
4 | ~1.6 | chain 2 YVKAPPTEPECEKQF
5 | ~1.1 | chain 2 YVKMPPTEPECEKQA
6 | ~1.2 | chain 2 YVKMPPTEPACEKQF
7 | ~0.67 | chain 2 YVKMPATEPECEKQF
8 | ~1.5 | chain 2 YVKMPPAEPECEKQF
9 | ~0.77 | chain 2 YVKMPPTEAECEKQF
10 | ~1.4 | chain 2 AVKMPPTEPECEKQF
11 | ~0.68 | chain 2 YVKMPPTEPECEKAF
12 | ~0.87 | chain 2 YVKMAPTEPECEKQF
13 | ~0.55 | chain 2 YVAMPPTEPECEKQF
14 | ~0.78 | chain 2 YVKMPPTEPEAEKQF
15 | ~1.7 | chain 2 YAKMPPTEPECEKQF
